Results published in patent publication US6207389A, “Methods of controlling T lymphocyte mediated immune responses” (HRC Research and Development Limited Partnership, priority 1995, dated 2001).

B1: truncated p69: 100 amino acid truncated p69 encoded by clone IS4 cDNA, contains Tep69 region, SEQ ID No. 41 (protein)
chain: MSGHKCSYPWDLQDRYAQDKSVVNKMQQKYWETKQAFIKATGKKEDEHVVASDADLDAKLELFHSIQRTCLDLSKAIVLYQKRICSF
B2: rec-p69: recombinant human islet cell antigen p69 expressed in E. coli, SEQ ID No. 2 (protein)
chain: MSGHKCSYPWDLQDRYAQDKSVVNKMQQKYWETKQAFIKATGKKEDEHVVASDADLDAKLELFHSIQRTCLDLSKAIVLYQKGICFLSQEENELGKFLRSQGFQDKTRAGKMMQATGKALCFSSQQRLALRNPLCRFHQEVETFRHRAISDTWLTVNRMEQCRTEYRGALLWMKDVSQELDPDLYKQMEKFRKVQTQVRLAKKNFDKLKMDVCQKVDLLGASRCNLLSHMLATYQTTLLHFWEKTSHTMAAIHESFKGYQPYEFTTLKSLQDPMKKLVEKEEKKKINQQESTDAAVQEPSQLISLEEENQRKESSSFKTEDGKSILSALDKGSTHTACSGPIDELLDMKSEEGACLGPVAGTPEPEGADKDDLLLLSEIFNASSLEEGEFSKEWAAVFGDGQVKEPVPTMALGEPDPKAQTGSGFLPSQLLDQNMKDLQASLQEPAKAASDLTAWFSLFADLDPLSNPDAVGKTDKEHELLNA
B3: ovalbumin (protein, UniProt P01012 2-386, looked up)
Ovalbumin: GSIGAASMEFCFDVFKELKVHHANENIFYCPIAIMSALAMVYLGAKDSTRTQINKVVRFDKLPGFGDSIEAQCGTSVNVHSSLRDILNQITKPNDVYSFSLASRLYAEERYPILPEYLQCVKELYRGGLEPINFQTAADQARELINSWVESQTNGIIRNVLQPSSVDSQTAMVLVNAIVFKGLWEKAFKDEDTQAMPFRVTEQESKPVQMMYQIGLFRVASMASEKMKILELPFASGTMSMLVLLPDEVSGLEQLESIINFEKLTEWTSSNVMEERKIKVYLPRMKMEEKYNLTSVLMAMGITDVFSSSANLSGISSAESLKISQAVHAAHAEINEAGREVVGSAEAGVDAASVSEEFRADHPFLFCIKHIATNAVLFFGRCVSP
notes: bona fide non-self control antigen

How the values were obtained:
[1] = system: NOD mice lymph node cells; experiment: Immunization and T cell proliferation assay, NOD mice (Example 11); assay type: in vivo, mouse; settings: 50 μg sc in complete Freund's adjuvant, recall with 1 μg antigen in vitro
Experimental: (§1) Recombinant truncated p69 was prepared by expression of a portion of the cDNA of IS4. The cDNA was cut a few nucleotides downstream of the 3' terminal of exon 3 and was subcloned into the PET™ expression system according to the manufacturer's recommendations (Novagen Inc., Madison, Wis.). The truncated protein contains 100 amino acids and is essentially identical with the murine molecule.
(§2) Antigens were injected subcutaneously in complete Freunds' adjuvant, and local lymph nodes and blood samples were collected 10 days later. Triplicate cultures of 2×10^5 lymph node cells were incubated for 5 days in serum-free HGM-af Medium™ (Promo Cell, Heidelberg, Germany) in the presence of 1 μg of protein or synthetic peptide as recall antigen. Six hours before harvesting, 1 μCi ^3 H-thymidine (6.7 Ci/mmol) was added to the wells, and isotope incorporation was analysed by liquid scintillation counting. Values are expressed as mean counts per minute ± standard deviation (mean cpm ± SD).
(§3) Young male NOD mice (H2^G7, IE^-/-) received a single immunization with truncated p69 (as encoded by IS4 cDNA) in complete adjuvant, and antibody and T cell proliferative responses were measured 8-10 days later. MHC disparate C57/B6 (H2^b, IE^-/-) and SJL (H2^s, IE^-/-) mice served as non-diabetes prone controls (FIG. 31).

[2] = system: C57/B6 and SJL mice lymph node cells; experiment: Immunization and T cell proliferation assay, non-diabetes prone control mice (Example 11); assay type: in vivo, mouse; settings: 50 μg sc in complete Freund's adjuvant
Experimental: as §1, §2, §3

NOD mice = experiment: Serum antibodies to BSA and p69 by fluoroimmunoassay, NOD mice (Example 11); assay type: in vivo, mouse; settings: 50 μg sc in complete Freund's adjuvant
Experimental: (§4) Male non-obese diabetic mice (NOD, 6-7 weeks old) were immunized with 50 μg BSA, ABBOS-short peptide ([…]), recombinant truncated p69 or p69 T cell epitope peptide `Tep69` ([…]) (10). Recombinant truncated p69 was prepared by expression of a portion of the cDNA of IS4. The cDNA was cut a few nucleotides downstream of the 3' terminal of exon 3 and was subcloned into the PET™ expression system according to the manufacturer's recommendations (Novagen Inc., Madison, Wis.).
(§5) Antigens were injected subcutaneously in complete Freunds' adjuvant, and local lymph nodes and blood samples were collected 10 days later. […] Six hours before harvesting, 1 μCi ^3 H-thymidine (6.7 Ci/mmol) was added to the wells, and isotope incorporation was analysed by liquid scintillation counting. Values are expressed as mean counts per minute ± standard deviation (mean cpm ± SD).
(§6) Serum antibodies to BSA and p69 were measured by particle concentration fluoroimmunoassay, as described (11). […] Bound fluorescence was read by an automated ScreenMachine™ instrument (IDEXX, Portland, Me.). Data are expressed in kilofluorescence units relative to a standard mouse serum analyzed in parallel within each assay plate.
(§7) Young male NOD mice (H2^G7, IE^-/-) received a single immunization with truncated p69 (as encoded by IS4 cDNA) in complete adjuvant, and antibody and T cell proliferative responses were measured 8-10 days later. […]

C57/B6 and SJL mice = experiment: Serum antibodies to BSA and p69 by fluoroimmunoassay, control mice (Example 11); assay type: in vivo, mouse; settings: 50 μg sc in complete Freund's adjuvant
Experimental: as §4, §5, §6, §7

[3] = system: PBMC from children with recent onset diabetes; experiment: T cell proliferation assay with BSA and rec-p69, patients (Example 3); assay type: cell-based, human; settings: 1 μg antigen
Experimental: (§8) Cultures containing 5×10^4 cells were incubated for 7 days at 37° C. in serum-free HL-1 medium (Ventrex, Portland, Me.) containing 1 μg antigen per well for test samples.
(§9) Control cultures were treated with 1 μg human, chick or horse albumin or an equivalent volume of control recombinant antigen prepared from lysates of E. coli carrying wild type plasmid.
(§10) After an overnight pulse of 1 μci ^3 H thymidine, cultures were harvested and submitted to liquid scintillation counting. Proliferation was expressed as cpm ^3 HTdR×10^-3.
(§11) A parallel set of cell cultures was incubated with the same test antigens or control agents in the presence of 10 U human IL2.

[4] = system: PBMC from healthy subjects; experiment: T cell proliferation assay with BSA and rec-p69, healthy subjects (Example 3); assay type: cell-based, human; settings: with or without IL2
Experimental: as §8, §9, §10, §11

[5] = listed as recombinant truncated p69

Row | Molecule | T cell proliferative response after immunisation [1] | T cell proliferative response after immunisation [1, 5] | T cell proliferative response after immunisation [2] | T cell proliferative response after immunisation [2, 5] | antibody response after immunisation (anti-p69 or anti-BSA) (NOD mice) | antibody response after immunisation (anti-p69 or anti-BSA) (NOD mice; [5]) | antibody response after immunisation (anti-p69 or anti-BSA) (C57/B6 and SJL mice) | proliferative response of patient samples ([3]; absence of IL2) | proliferative response of patient samples ([3]; absence of IL2, listed as recombinant human p69 protein) | proliferative response of patient samples ([3]; presence of 10 U IL2, listed as recombinant human p69 protein) | proliferative response of samples from healthy subjects [4]
1 | B1 | Vigorous p69-specific antibody and T cell responses | vigorous B- and T cell responses | not in C57/B6 or SJL strains | essentially no responses | Vigorous p69-specific antibody and T cell responses | vigorous B- and T cell responses | not in C57/B6 or SJL strains |  |  |  | 
2 | B2 |  |  |  |  |  |  |  | at best a small proliferative response | little or no proliferative response | full proliferative response | no significant proliferative response
3 | B3 |  |  | comparable responses |  |  |  | comparable responses |  |  |  | 
